The text below walks through data of FireProtDB (doi:10.1021/bi00009a035).

Chain of Cytochrome c isoform 1 K79A, P00044 (P00044 whole entry K79A, canonical isoform): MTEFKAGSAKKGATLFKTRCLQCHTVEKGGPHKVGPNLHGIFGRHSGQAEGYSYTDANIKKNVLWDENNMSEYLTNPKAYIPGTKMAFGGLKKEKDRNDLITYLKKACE
Chain of Cytochrome c isoform 1 K79L, P00044 (P00044 whole entry K79L, canonical isoform): as the sequence (P00044 whole entry K79A, canonical isoform) above, with A79L counted along it
Chain of Cytochrome c isoform 1 K79V, P00044 (P00044 whole entry K79V, canonical isoform): as the sequence (P00044 whole entry K79A, canonical isoform) above, with A79V counted along it
Chain of Cytochrome c isoform 1 K79R, P00044 (P00044 whole entry K79R, canonical isoform): as the sequence (P00044 whole entry K79A, canonical isoform) above, with A79R counted along it
Chain of Cytochrome c isoform 1 K79I, P00044 (P00044 whole entry K79I, canonical isoform): as the sequence (P00044 whole entry K79A, canonical isoform) above, with A79I counted along it
Chain of Cytochrome c isoform 1 K79G, P00044 (P00044 whole entry K79G, canonical isoform): as the sequence (P00044 whole entry K79A, canonical isoform) above, with A79G counted along it
Chain of Cytochrome c isoform 1 wild type, P00044 (P00044 whole entry, canonical isoform): as the sequence (P00044 whole entry K79A, canonical isoform) above, with A79K counted along it

The conditions of one data set: Saccharomyces cerevisiae (strain ATCC 204508 / S288c); pH 7.5; 25 °C; GdnHCl; CD; Tris-HCl 20 mM; NaCl 40 mM; reversible: yes (94-100%).
Consider “Cytochrome c isoform 1 wild type, P00044”, for which the denaturant m value was 4.87 kcal/mol/M, the “denaturant midpoint (higher = more stable)” value (shortened to “denaturant midpoint”) was determined as 1.16 M and the unfolding free energy amounted to 5.66 kcal/mol.

The same data set, now with this note: Saccharomyces cerevisiae (strain ATCC 204508 / S288c); pH 7.5; 25 °C; GdnHCl; CD; Tris-HCl 20 mM; NaCl 40 mM; reversible: yes (94-100%); structure 1YCC.
Take Cytochrome c isoform 1 K79V, P00044: the “ddG of mutation (higher = less stable)” value was 1.38 kcal/mol, the denaturant m value is 4.01 kcal/mol/M, the “denaturant midpoint” value turned out to be 1.07 M and the unfolding free energy was determined as 4.28 kcal/mol.

On to Cytochrome c isoform 1 K79I, P00044, for which the “ddG of mutation (higher = less stable)” value came to 1.19 kcal/mol, the denaturant m value amounted to 4.29 kcal/mol/M, the “denaturant midpoint” value came to 1.04 M and the unfolding free energy worked out at 4.47 kcal/mol.

Regarding Cytochrome c isoform 1 K79A, P00044, the “ddG of mutation (higher = less stable)” value amounted to 0.45 kcal/mol, the denaturant m value worked out at 4.44 kcal/mol/M, the “denaturant midpoint” value was found to be 1.17 M and the unfolding free energy was found to be 5.21 kcal/mol.

With Cytochrome c isoform 1 K79L, P00044, the “ddG of mutation (higher = less stable)” value turned out to be 0.03 kcal/mol, the denaturant m value was 4.98 kcal/mol/M, the “denaturant midpoint” value stood at 1.13 M and the unfolding free energy was determined as 5.63 kcal/mol.

Turning to Cytochrome c isoform 1 K79G, P00044, the “ddG of mutation (higher = less stable)” value came out at 0.74 kcal/mol, the denaturant m value stood at 4.58 kcal/mol/M, the “denaturant midpoint” value came out at 1.07 M and the unfolding free energy was determined as 4.92 kcal/mol.

Cytochrome c isoform 1 K79R, P00044: the “ddG of mutation (higher = less stable)” value is 0.03 kcal/mol, the denaturant m value is 5.25 kcal/mol/M, the “denaturant midpoint” value was 1.07 M and the unfolding free energy turned out to be 5.63 kcal/mol.
